Source: the DeepSol protein solubility set

Assay: soluble on expression in E. coli; label from the status in PepcDB or PDB records

Sequence	soluble on expression in E. coli
MSLRITRLTVFHLDLPLAKPYWLSGGRLKFDRLDSTYLRIDTDEGVTGWGEGCPWGHSYLPAHGPGLRAGIATLAPHLLGLDPRSLDHVNRVMDLQLPGHSYVKSPIDMACWDILGQVAGLPLWQLLGGEAATPVPINSSISTGTPDQMLGLIAEAAAQGYRTHSAKIGGSDPAQDIARIEAISAGLPDGHRVTFDVNRAWTPAIAVEVLNSVRARDWIEQPCQTLDQCAHVARRVANPIMLDECLHEFSDHLAAWSRGACEGVKIKPNRVGGLTRARQIRDFGVSVGWQMHIEDVGGTALADTAALHLAASTPEANRLASWLGHAHLADDPIPGQGARNRDGLATPPSAPGLGVIPDPEALGRPVASYDEGHHHHHH	soluble
MSLANGVWSLQPLADMSAAEFRDWQVLLENRTGVVLNEQRRTFLQTSLTARMRELGIGDYHSYYRQVTDGPRGAVEWAILLDRLTVQETRFFRHPPSFELLERYLGERLGREGMPRPWALWSVGCSSGEEPYSMAMCAAQALRGWQRGDFFGVTGTDISLHALQRARAANYPARKLEQLPAEMVERYCERQADGSFSVKTILTGRVCCARLNVLDLAKAPWSGMDVIFCQNLLIYFRRWRRREILNRLAERLAPGGLLVIGVGEVVDWSHPELEPVADERVLAFTRKGEGHHHHHH	soluble
MTEYERPQTPGVVTHDAVVLAGGAARRLGGADKPGVRVGGRALLDRVLAACAGAATTVVVADPRATARPVVWAREEPPGAGPVAALDAGLRRTTAAYVVVLSADLPFLDEETVRRLLSTLQASGTEGVLLTDPGGRDQPLVAAYRSAALRRELAELAAGHGTLAGLPLRVLVAALDLTRVSDPVASFDCDTWDDIAAARSRIREHGNVLDEWISAVKDELGIDLAVDTGILLDLARDAAHGVARPAAPLTTFLVGYAAAQAGGGPEAVAEAARKAAALALRWADEAAAEAGPDAGLEHHHHHH	not soluble
MGSDKIHHHHHHMDTQRGSLRGKAHKARLKMTPNGRRQLLLERGAAFSKNRTPGLKHVDRHTIVDSDGLSIHTYMVGHAENATATVVFIHGFTLAAEVYYMQVDYLQTFYPNIKSVLIDARGHGATGQIRPELCTIEGTANDVLAAIHEHAPTGPLILVGHSLGGLTALNLVKRADHSLRKRIVGMVLVATSIESLSTQGLPQVLASPLADNIKNAVEAAPNDAQKFRQYATTFLAPTLATAVFQRDTNDEVIDFHAAMIHETPLDTFVGFFDDLQEHDELDAAPALEGLKGYVLAGELDDVTPISQADRICEVWPGARLQIAEGAGHMLPLEAPGILNNAIGNILDGLG	not soluble
MVNYENVIVTEITETLTFFAQSVESGSKLESLMSKLHADFQSNPPIAGSYTPKRGDLVAAQFTLDNQWYRAKVERVQGSNATVLYIDYGNKETLPTNRLAALPPAFSSEKPYATEYALALVALPTDNEDKEEALRAFSEDVLNHKVQLNVELKVTGSPNLATLRDPTTKVDFGKQLVAEGLVLAEQRGERKLKELVDQYKAAQEAARVAHLAIWKYGD	soluble
GPVDEVSFHSVVQQLKARQQATDEQLEELQEAFAKVQERNSVFSDWLKISAMLCAATLALSQVVKMAKAVKQMVKPDLVRVQLDEQEQGPYNETARVKPKTLQLLDIQGPNPVMDFEKYVAKHVTAPIGFVYPTGVSTQTCLLVRGRTLVVNRAMAESDWTSIVVRGVTHARSTVKILAIAKAGKETDVSFIRLSSGPLFRDNTSKFVKAGDVLPTGAAPVTGIMNTDIPMMYTGTFLKAGVSVPVETGQTFNHCIHYKANTRKGWSGSALLADLGGSKKILGIHSAGSMGIAAASIVSQEMIRAVVNAFEPQ	soluble
ATRSPGVVISDDEPGYDLDLFCIPNHYAEDLERVFIPHGLIMDRTERLARDVMKEMGGHHIVALCVLKGGYKFFADLLDYIKALNRNSDRSIPMTVDFIRLKSYCNDQSTGDIKVIGGDDLSTLTGKNVLIVEDIIDTGKTMQTLLSLVRQYNPKMVKVASLLVKRTPRSVGYKPDFVGFEIPDKFVVGYALDYNEYFRDLNHVCVISETGKAKYKA	soluble
MGSDKIHHHHHHMAVSLWQQCIGRLQDELSAQQFSMWIRPLQAEMEGDTLVLYAPNRFVLDWVRDKYINSINQFFTEQLGDNAPKLRFDIGSRPSAKPQAPAPAAVKAAAPQPKPGNSFVSQPEPAVSNHRSNINPTYQFDNFVEGKSNQLGKAAALQVAENPGGAYNPLFLYGGTGLGKTHLLHAVGNGIIKNNPNAKVVYMHSERFVQDMVKALQNNAIEEFKRYYRSVDALFIDDIQFFANKDRSQEEFFHTFNALLEGNHQIILTSDRYPKEIDGVEDRLKSRFGWGLTVAIEPPELETRVAILMRKAQESGINLPDEVAFFIAKRLRSNVRELEGALNRVIANANFTGRPITIDFVREALRDLLALQEKLVTIDNIQKTVAEYYKIKMADMLSKRRSRSVARPRQMAMALSKELTNQSLPEIGDAFGGRDHTTVLHACRKIAQLREESHDIKEDYANLIRTLSS	not soluble
MGSDKIHHHHHHMAIGLSTYAFFWRASSRVPNPLGLAAMLEQTAESGAGVFQICDYAAVEALSPAELEKLRQRAVDLGIQLELGTRGLATDHLTRYLTMARALDVRFIRTMFNSATHKPTQDEALALLRCVLPEFEQYNIQLGLETYEQVKTRDVLAVVDAIDSPALGICLDPGNCVAALEYPHEVIELTASRVVNLHIKDFAFARQEGWVGFTYSGCLLGTGLLDYDALHQTIRPNERNINQIVEHWLPWQASAEETCRLEDAWTRHSLNYLYTRNPYANRSSHIL	not soluble
GSSTVTLPETLLFVSTLDGSLHAVSKRTGSIKWTLKEDPVLQVPTHVEEPAFLPDPNDGSLYTLGSKNNEGLTKLPFTIPELVQASPCRSSDGILYMGKKQDIWYVIDLLTGEKQQTLSSAFADSLSPSTSLLYLGRTEYTITMYDTKTRELRWNATYFDYAASLPEDDVDYKMSHFVSNGDGLVVTVDSESGDVLWIQNYASPVVAFYVWQREGLRKVMHINVAVETLRYLTFMSGEVGRITKWKYPFPKETEAKSKLTPTLYVGKYSTSLYASPSMVHEGVAVVPRGSTLPLLEGPQTDGVTIGDKGESVITPSTDVKFDPGLKSKNKLNYLRNYWLLIGHHETPLSASTKMLERFPNNLPKHRENV	soluble
MKSVLITFDQAYYERIMALLDRLNCRGFTYLEKVQGRGSKTGDPHFGSHAWPSMCSAILTVVDDNKVDPLLDTLHKMDLQTEQLGLRAFVWNIERTI	not soluble
MLGMYVPDRFALKSSRVQDGMGLYTARRVRKGEKFGPFAGEKRMPEDLDENMDYRLMWEVRGSKGEVLYILDATNPRHSNWLRFVHEAPSQERKNLAAIQEGENIFYLAVDDIETDTELLIGYLDSDVEAEEEEQQALTMTKEGKVDHSKGQLAAGSKGHLGCEEDFACPQCESSFPSEEVLTEHLQSLHQKPTGEKEFKCENCGKKFPVRQALQRHFEQHRKACRGEARFVCKADSCGKRLKSKDALRRHQENVHTGDPKRKLICSVCNRKCTSVSSLQEHRKIHEIFDCQECMKKFISANQLKRHMITHSEKRPYNCEICNKSFKRLDQVGAHKVIHSEDKPYQCKLCGKGFAHRNVYKNHKKTHSEERPFQCDACKALFRTPFSLQRHLLIHNSERTFKCHHCDATFKRKDTLNVHVQVVHERHKKYRCELCNKAFVTPSVLRSHKKTHTGEKEKVCPYCGQKFASSGTLRVHIRSHTGERPYQCPYCEKGFSKNDGLKMHIRTHTREKPYQCSECSKAFSQKRGLDATKRTHTGEKPFQCDVCDLAFSLKKMLIRHKMTHNPNRPMAECHFCHKKFTRNDYLKVHMDNIHGVADS	soluble
MSLKSKPVFRLVVAATGLCALPTWADGWPSWSPETAVVPYYFVSDSMGNTLGVAGLAKHVGQANASVLGTALYSDKGSYVTYLSATNYQVGDFWLLGAESYQGKFVDYDYYLGANASNDSTAADRTIATGKESITRFSFRYIVPWGHAAFRGARAALEPTRQIKGFSPDRSGITTIEFQPFHTSREINAIAGQDSDSSGLSLKLDWDNRNDVRNPTQGFRTRLDITYADENWGNDSDWLKYEYSSSGFWNLGGVDDLLDQQVFAFNFYIADTPTWNNCNTQTCQRPPEFDQVSLGGLYRLRSFSSGRFHGKSAINYSAEYRVLPKWQPLDDIPVLNIYDIPWWQWVAFVDMGRVSDESSFSELHSDMQWSAGGAVRFQVEGIVVRAEMAWGSEESLFRVMVNQEGHHHHHH	not soluble
MSLNIKRFVSWDCVNGIKGVLNENGKFSNNPMGVLNWIKAQTSEIPTILLVRDFHKFYDDPSISRTIKELSSSLRETNNNLILSSHILPSSEELDDLITILNLPLPDLSELTALIKKIAFNTDSDLSEQDLNELAIASSGLSEIKVKQVTAKALAQRGKISEGHHHHHH	not soluble
